Key:
[1] = molecular target: T1, ErbB2&ErbB3 co-expressed on COS7 cells (UniProt P04626 23-1255; P21860 20-1342, limits assumed); experiment: receptor binding affinity assay on COS7 cells co-expressing ErbB2&ErbB3
T1 construct: whole, on cells; Both receptors are co-expressed on the same cells, and the numbers are for these cells, not for a single receptor; also called COS7 cells (ErbB2&ErbB3 co-expression)
Procedure: (§1) To study the receptor binding affinity of neuregulin and its mutations, ErbB2&ErbB3 or ErbB2&ErbB4 co-expressing COS7 are used. The cells are grown to 80% confluence. In the afternoon, after the cells reach 80% confluence, the media is changed to serum free media. Then, after 24 hours, the cells are harvested for receptor binding affinity assays.

[2] = molecular target: T2, ErbB2&ErbB4 co-expressed on COS7 cells (UniProt P04626 23-1255; Q15303 26-1308, limits assumed); experiment: receptor binding affinity assay on COS7 cells co-expressing ErbB2&ErbB4
T2 construct: whole, on cells; Both receptors are co-expressed on the same cells, and the numbers are for these cells, not for a single receptor; also called COS7 cells (ErbB2&ErbB4 co-expression)
Procedure: as §1

[3] = molecular target: T1, ErbB2&ErbB3 co-expressed on COS7 cells; experiment: competition of bound radiolabeled ligands on COS7 cells co-expressing ErbB2&ErbB3
Procedure: as §1

[4] = molecular target: T2, ErbB2&ErbB4 co-expressed on COS7 cells; experiment: competition of bound radiolabeled ligands on COS7 cells co-expressing ErbB2&ErbB4
Procedure: as §1

Kd [1] | Kd [2] | EC50 [3] | EC50 [4] | Binder
1.41 nM | 0.282 nM | 113 nM | 132 nM | neuregulin (the 177-237 amino acids fragment of neuregulin1 β2) (ligand, also called NRG; NRG-1β) SHLVKCAEKEKTFCVNGGECFMVKDLSNPSRYLCKCPNEFTGDRCQNYVMASFYKAEELYQ
 |  | 149 nM | 40.7 nM | neuregulin variant D43A (ligand) SHLVKCAEKEKTFCVNGGECFMVKDLSNPSRYLCKCPNEFTGARCQNYVMASFYKAEELYQ
1.15 nM | 1.06 nM |  |  | neuregulin variant L3A (ligand) SHAVKCAEKEKTFCVNGGECFMVKDLSNPSRYLCKCPNEFTGDRCQNYVMASFYKAEELYQ
